# Reference: patent US11214614B2, “LTBP complex-specific inhibitors of TGFβ and uses thereof” (Scholar Rock, Inc., priority 2019, dated 2022)
# Target: huLTBP1 proTGFβ1 (Homo sapiens, UniProt P01137+Q14766)
# Assay: SPR (Biacore 8K) monovalent binding kinetics of Fabs, biotinylated antigen captured
# Parameters: biotin (complex biotinylated)
# Settings: Fab, huLTBP1 proTGFβ1; SR-AB42-HuFab average of five, SR-AB63-HuFab average of four replicate experiments
# Protocol: A Biacore 8K system was employed to determine the monovalent binding affinity and the kinetic parameters for antigen binding of test antibodies. Association and dissociation kinetics of Fab fragments SR-AB42-HuFab, SR-AB63-HuFab and SR-AB43-HuFab to antigen complexes were measured, and resulting ka, kd and KD are provided below. Briefly, the binding kinetics were evaluated by surface plasmon resonance using Biacore 8K (GE Healthcare). Biotinylated capture antigens were immobilized to the chip (10 nM, ˜200 RU loading). A Biotin CAPture sensor chip was used to capture the biotinylated antigens. Fabs at 10, 5, 2.5, 1.25, and 0.6 nM concentrations were injected over the captured antigens. 0 nM was used as a reference. Affinities of LTBP antibodies to GARP and LRRC33 were confirmed using higher concentration of Fabs (100, 50, 25, 12.5, 6.25 nM). 0 nM was used as a reference. Multi-cycle kinetics was employed where each analyte concentration was injected in a separate cycle and the sensor chip surface was regenerated after each cycle. All the assays were carried out in freshly prepared 1×HBS-EP+buffer (10 mM HEPES, 150 mM NaCl, 3 mM EDTA, 0.05% Tween20, pH 7.4). Data were fit globally to a 1:1 binding model to obtain the kinetic parameters. The sensorgram for 0 nM analyte concentration was used as reference.
# • 96 well plates—Greinerbio-one REF 650101 • Microplate Foils—GE Healthcare—CAT #28-9758-16 • Biotin CAPture Kit GE Healthcare product number 28920233 • Biacore running buffer—supplied as a 20× solution, diluted in Milli-Q water, TEKnova CAT #H8022 Method:
# These experiments were performed using the Biacore 8K using the method “multi-cycle kinetics/affinity using Biotin CAPture kit.”
# Data collection rate was set to 10 Hz and the Biotin CAPture step was performed for 300 seconds with a flow rate of 2 μL/minute. The Biotin CAPture reagent was used after a 1:5 dilution in 1× Biacore running buffer. Biotinylated ligands (the various complexes of TGFβ1) were utilized at a concentration of 10 nM and were immobilized to the sensor chip for 180 seconds with a flow rate of 10 μL/minute. The analytes, which are each of the Fabs, were tested at 10, 5, 2.5, 1.25, and 0.625 nM with a 0 nM control included. Analyte contact time was 120 seconds and the dissociation time was 900 seconds. The regeneration cycle utilized was 120 seconds with a flow rate of 10 μL/minute.
# The evaluation method used was “multi-cycle affinity using capture” and a 1:1 binding model was used. […] Global fits were utilized for every KD determination.
# huLTBP1 proTGFβ1, sequence (P01137 30-390): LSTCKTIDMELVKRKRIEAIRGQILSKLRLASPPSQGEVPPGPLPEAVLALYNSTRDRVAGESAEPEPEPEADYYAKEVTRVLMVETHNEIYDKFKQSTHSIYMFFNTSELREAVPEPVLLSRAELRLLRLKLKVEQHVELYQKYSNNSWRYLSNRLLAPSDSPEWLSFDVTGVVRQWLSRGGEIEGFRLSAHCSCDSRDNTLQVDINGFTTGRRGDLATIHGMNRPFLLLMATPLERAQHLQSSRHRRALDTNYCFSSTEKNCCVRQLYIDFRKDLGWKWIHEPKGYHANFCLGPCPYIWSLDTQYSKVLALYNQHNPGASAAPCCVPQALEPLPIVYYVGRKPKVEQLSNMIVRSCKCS
# huLTBP1 proTGFβ1, sequence (Q14766 347-1721 limits assumed): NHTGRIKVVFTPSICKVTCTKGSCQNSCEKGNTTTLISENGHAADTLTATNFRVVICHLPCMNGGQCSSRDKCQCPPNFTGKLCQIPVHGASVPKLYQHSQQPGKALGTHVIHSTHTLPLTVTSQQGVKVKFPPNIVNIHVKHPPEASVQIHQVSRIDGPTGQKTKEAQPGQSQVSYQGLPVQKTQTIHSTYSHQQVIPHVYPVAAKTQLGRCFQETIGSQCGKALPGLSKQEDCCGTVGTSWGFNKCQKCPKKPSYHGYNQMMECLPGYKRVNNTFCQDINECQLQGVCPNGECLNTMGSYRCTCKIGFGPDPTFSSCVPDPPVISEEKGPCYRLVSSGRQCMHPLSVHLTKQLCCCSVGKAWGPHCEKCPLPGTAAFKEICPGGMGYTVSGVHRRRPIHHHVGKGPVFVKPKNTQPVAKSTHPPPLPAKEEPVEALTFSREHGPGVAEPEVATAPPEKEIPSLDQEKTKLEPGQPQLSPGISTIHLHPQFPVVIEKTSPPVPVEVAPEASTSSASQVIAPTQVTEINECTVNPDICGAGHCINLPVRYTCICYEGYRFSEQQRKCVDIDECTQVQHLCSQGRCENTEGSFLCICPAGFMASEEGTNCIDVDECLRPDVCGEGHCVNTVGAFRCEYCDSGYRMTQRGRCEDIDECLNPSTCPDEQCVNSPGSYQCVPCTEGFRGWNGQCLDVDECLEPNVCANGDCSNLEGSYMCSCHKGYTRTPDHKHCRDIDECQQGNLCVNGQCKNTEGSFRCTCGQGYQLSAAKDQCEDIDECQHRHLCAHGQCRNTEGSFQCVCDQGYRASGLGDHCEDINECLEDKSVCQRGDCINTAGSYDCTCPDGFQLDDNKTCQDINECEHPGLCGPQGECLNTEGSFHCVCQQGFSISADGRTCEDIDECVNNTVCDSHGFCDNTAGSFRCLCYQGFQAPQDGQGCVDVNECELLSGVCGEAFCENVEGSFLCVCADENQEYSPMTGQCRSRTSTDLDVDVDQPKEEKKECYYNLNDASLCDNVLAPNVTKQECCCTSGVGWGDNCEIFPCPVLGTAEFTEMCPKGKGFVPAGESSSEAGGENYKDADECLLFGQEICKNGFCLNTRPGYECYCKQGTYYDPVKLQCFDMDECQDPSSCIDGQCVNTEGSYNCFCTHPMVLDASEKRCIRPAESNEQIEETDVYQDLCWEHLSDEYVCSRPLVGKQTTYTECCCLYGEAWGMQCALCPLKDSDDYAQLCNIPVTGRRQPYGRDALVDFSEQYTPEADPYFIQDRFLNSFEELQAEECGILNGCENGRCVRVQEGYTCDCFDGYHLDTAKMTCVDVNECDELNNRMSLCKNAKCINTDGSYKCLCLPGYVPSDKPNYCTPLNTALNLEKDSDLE
Molecule,ka [M⁻¹ s⁻¹],kd [s⁻¹]
"SR-AB48-HuFab (antibody, V domains shown) VH: QVQLVESGGGVVQPGRSLRLSCAASGFTFRSYVMHWVRQAPGKGLEWVAVISHEGSGKYYADSVKGRFTISRDNSKNTLYLQMNSLRAEDTAVYYCARPRIAARRGGFGSWGQGTLVTVSS VL: NFMLTQPHSVSESPGKTVTISCTRSSGNIDYNYVQWYQQRPGSSPTTVIYEDNVRPSGVPDRFSGSIDSSSNSASLTISGLKTEDEADYYCQSYDYDTQGVVFGGGTKLTVL",1.76e+06,0.000104
"SR-AB55-HuFab (antibody, V domains shown) VH: QVQLVESGGGVVQPGRSLRLSCAASGFTFRSYVMHWVRQAPGKGLEWVAVISHEGSGKYYADSVKGRFTISRDNSKNTLYLQMNSLRAEDTAVYYCALPRIAARRGGFGSWGQGTLVTVSS VL: NFMLTQPHSVSESPGKTVTISCTRSSGNIDYNYVQWYQQRPGSSPTTVIYEDNVRPSGVPDRFSGSIDSSSNSASLTISGLKTEDEADYYCQSYDYDNQAVVFGGGTKLTVL",862000,0.000113
"SR-AB53-HuFab (antibody, V domains shown) VH: QVQLVESGGGVVQPGRSLRLSCAASGFTFRSYVMHWVRQAPGKGLEWVAVISHEGSGKYYADSVKGRFTISRDNSKNTLYLQMNSLRAEDTAVYYCARPRIAARRGGFGTWGQGTLVTVSS VL: NFMLTQPHSVSESPGKTVTISCTRSSGNIDYNYVQWYQQRPGSSPTTVIYEDNVRPSGVPDRFSGSIDSSSNSASLTISGLKTEDEADYYCQGYDWDTQGVVFGGGTKLTVL",1.82e+06,0.000128
"SR-AB47-HuFab (antibody, V domains shown) VH: QVQLVESGGGVVQPGRSLRLSCAASGFTFRSYVMHWVRQAPGKGLEWVAVISHEGSGKYYADSVKGRFTISRDNSKNTLYLQMNSLRAEDTAVYYCARPRIAARRGGFGSWGQGTLVTVSS VL: NFMLTQPHSVSESPGKTVTISCTRSSGNIDYNYVQWYQQRPGSSPTTVIYEDNVRPSGVPDRFSGSIDSSSNSASLTISGLKTEDEADYYCQSYDYDNQAVVFGGGTKLTVL",1.84e+06,0.000136
"SR-AB61-HuFab (antibody, V domains shown) VH: QVQLVESGGGVVQPGRSLRLSCAASGFTFRSYVMHWVRQAPGKGLEWVAVISHEGSGKYYADSVKGRFTISRDNSKNTLYLQMNSLRAEDTAVYYCALPRIAARRGGFGTWGQGTLVTVSS VL: NFMLTQPHSVSESPGKTVTISCTRSSGNIDYNYVQWYQQRPGSSPTTVIYEDNVRPSGVPDRFSGSIDSSSNSASLTISGLKTEDEADYYCQGYDWDTQGVVFGGGTKLTVL",1.17e+06,0.000155
"SR-AB49-HuFab (antibody, V domains shown) VH: QVQLVESGGGVVQPGRSLRLSCAASGFTFRSYVMHWVRQAPGKGLEWVAVISHEGSGKYYADSVKGRFTISRDNSKNTLYLQMNSLRAEDTAVYYCARPRIAARRGGFGSWGQGTLVTVSS VL: NFMLTQPHSVSESPGKTVTISCTRSSGNIDYNYVQWYQQRPGSSPTTVIYEDNVRPSGVPDRFSGSIDSSSNSASLTISGLKTEDEADYYCQGYDWDTQGVVFGGGTKLTVL",809000,0.000138
"SR-AB59-HuFab (antibody, V domains shown) VH: QVQLVESGGGVVQPGRSLRLSCAASGFTFRSYVMHWVRQAPGKGLEWVAVISHEGSGKYYADSVKGRFTISRDNSKNTLYLQMNSLRAEDTAVYYCALPRIAARRGGFGTWGQGTLVTVSS VL: NFMLTQPHSVSESPGKTVTISCTRSSGNIDYNYVQWYQQRPGSSPTTVIYEDNVRPSGVPDRFSGSIDSSSNSASLTISGLKTEDEADYYCQSYDYDNQAVVFGGGTKLTVL",2.55e+06,0.00013
"SR-AB52-HuFab (antibody, V domains shown) VH: QVQLVESGGGVVQPGRSLRLSCAASGFTFRSYVMHWVRQAPGKGLEWVAVISHEGSGKYYADSVKGRFTISRDNSKNTLYLQMNSLRAEDTAVYYCARPRIAARRGGFGTWGQGTLVTVSS VL: NFMLTQPHSVSESPGKTVTISCTRSSGNIDYNYVQWYQQRPGSSPTTVIYEDNVRPSGVPDRFSGSIDSSSNSASLTISGLKTEDEADYYCQSYDYDTQGVVFGGGTKLTVL",2.5e+06,9.91e-05
"SR-AB60-HuFab (antibody, V domains shown) VH: QVQLVESGGGVVQPGRSLRLSCAASGFTFRSYVMHWVRQAPGKGLEWVAVISHEGSGKYYADSVKGRFTISRDNSKNTLYLQMNSLRAEDTAVYYCALPRIAARRGGFGTWGQGTLVTVSS VL: NFMLTQPHSVSESPGKTVTISCTRSSGNIDYNYVQWYQQRPGSSPTTVIYEDNVRPSGVPDRFSGSIDSSSNSASLTISGLKTEDEADYYCQSYDYDTQGVVFGGGTKLTVL",2.35e+06,0.00012
"SR-AB50-HuFab (antibody, V domains shown) VH: QVQLVESGGGVVQPGRSLRLSCAASGFTFRSYVMHWVRQAPGKGLEWVAVISHEGSGKYYADSVKGRFTISRDNSKNTLYLQMNSLRAEDTAVYYCARPRIAARRGGFGTWGQGTLVTVSS VL: NFMLTQPHSVSESPGKTVTISCTRSSGNIDYNYVQWYQQRPGSSPTTVIYEDNVRPSGVPDRFSGSIDSSSNSASLTISGLKTEDEADYYCQSYDSDNQRVVFGGGTKLTVL",3.31e+06,0.000182
"SR-AB51-HuFab (antibody, V domains shown) VH: QVQLVESGGGVVQPGRSLRLSCAASGFTFRSYVMHWVRQAPGKGLEWVAVISHEGSGKYYADSVKGRFTISRDNSKNTLYLQMNSLRAEDTAVYYCARPRIAARRGGFGTWGQGTLVTVSS VL: NFMLTQPHSVSESPGKTVTISCTRSSGNIDYNYVQWYQQRPGSSPTTVIYEDNVRPSGVPDRFSGSIDSSSNSASLTISGLKTEDEADYYCQSYDYDNQAVVFGGGTKLTVL",2.55e+06,0.00015
"SR-AB56-HuFab (antibody, V domains shown) VH: QVQLVESGGGVVQPGRSLRLSCAASGFTFRSYVMHWVRQAPGKGLEWVAVISHEGSGKYYADSVKGRFTISRDNSKNTLYLQMNSLRAEDTAVYYCALPRIAARRGGFGSWGQGTLVTVSS VL: NFMLTQPHSVSESPGKTVTISCTRSSGNIDYNYVQWYQQRPGSSPTTVIYEDNVRPSGVPDRFSGSIDSSSNSASLTISGLKTEDEADYYCQSYDYDTQGVVFGGGTKLTVL",2.58e+06,0.000126
"SR-AB46-HuFab (antibody, V domains shown) VH: QVQLVESGGGVVQPGRSLRLSCAASGFTFRSYVMHWVRQAPGKGLEWVAVISHEGSGKYYADSVKGRFTISRDNSKNTLYLQMNSLRAEDTAVYYCARPRIAARRGGFGSWGQGTLVTVSS VL: NFMLTQPHSVSESPGKTVTISCTRSSGNIDYNYVQWYQQRPGSSPTTVIYEDNVRPSGVPDRFSGSIDSSSNSASLTISGLKTEDEADYYCQSYDSDNQRVVFGGGTKLTVL",2.47e+06,0.00011
"SR-AB57-HuFab (antibody, V domains shown) VH: QVQLVESGGGVVQPGRSLRLSCAASGFTFRSYVMHWVRQAPGKGLEWVAVISHEGSGKYYADSVKGRFTISRDNSKNTLYLQMNSLRAEDTAVYYCALPRIAARRGGFGSWGQGTLVTVSS VL: NFMLTQPHSVSESPGKTVTISCTRSSGNIDYNYVQWYQQRPGSSPTTVIYEDNVRPSGVPDRFSGSIDSSSNSASLTISGLKTEDEADYYCQGYDWDTQGVVFGGGTKLTVL",1.35e+06,0.000181
"SR-AB58-HuFab (antibody, V domains shown) VH: QVQLVESGGGVVQPGRSLRLSCAASGFTFRSYVMHWVRQAPGKGLEWVAVISHEGSGKYYADSVKGRFTISRDNSKNTLYLQMNSLRAEDTAVYYCALPRIAARRGGFGTWGQGTLVTVSS VL: NFMLTQPHSVSESPGKTVTISCTRSSGNIDYNYVQWYQQRPGSSPTTVIYEDNVRPSGVPDRFSGSIDSSSNSASLTISGLKTEDEADYYCQSYDSDNQRVVFGGGTKLTVL",3.11e+06,0.000162
"SR-AB54-HuFab (antibody, V domains shown) VH: QVQLVESGGGVVQPGRSLRLSCAASGFTFRSYVMHWVRQAPGKGLEWVAVISHEGSGKYYADSVKGRFTISRDNSKNTLYLQMNSLRAEDTAVYYCALPRIAARRGGFGSWGQGTLVTVSS VL: NFMLTQPHSVSESPGKTVTISCTRSSGNIDYNYVQWYQQRPGSSPTTVIYEDNVRPSGVPDRFSGSIDSSSNSASLTISGLKTEDEADYYCQSYDSDNQRVVFGGGTKLTVL",1.8e+06,8.83e-05
